Assay [1] addresses T1, recombinant human trimeric ARG2 enzyme (construct not given) (human, UniProt P78540 23-354).
T1 sequence (looked up): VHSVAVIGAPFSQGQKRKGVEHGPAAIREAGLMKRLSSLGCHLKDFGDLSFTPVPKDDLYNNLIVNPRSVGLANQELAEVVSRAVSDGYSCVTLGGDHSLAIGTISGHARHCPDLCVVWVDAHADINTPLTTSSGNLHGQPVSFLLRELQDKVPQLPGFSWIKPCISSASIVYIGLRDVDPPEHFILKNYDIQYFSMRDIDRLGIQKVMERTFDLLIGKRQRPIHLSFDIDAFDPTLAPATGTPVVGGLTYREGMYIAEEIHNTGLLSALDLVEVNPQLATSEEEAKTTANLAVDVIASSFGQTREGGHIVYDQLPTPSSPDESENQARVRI
The assay is described as follows: cell-based or functional assay.

Assay [2] concerns the target T2, biotinylated recombinant human trimeric ARG2 enzyme (Avi-huARG2-His10) (human, UniProt P78540 23-354, biotinylated).
T2 construct: also called avi-Arg2-His10; bio-ARG2
T2 chain: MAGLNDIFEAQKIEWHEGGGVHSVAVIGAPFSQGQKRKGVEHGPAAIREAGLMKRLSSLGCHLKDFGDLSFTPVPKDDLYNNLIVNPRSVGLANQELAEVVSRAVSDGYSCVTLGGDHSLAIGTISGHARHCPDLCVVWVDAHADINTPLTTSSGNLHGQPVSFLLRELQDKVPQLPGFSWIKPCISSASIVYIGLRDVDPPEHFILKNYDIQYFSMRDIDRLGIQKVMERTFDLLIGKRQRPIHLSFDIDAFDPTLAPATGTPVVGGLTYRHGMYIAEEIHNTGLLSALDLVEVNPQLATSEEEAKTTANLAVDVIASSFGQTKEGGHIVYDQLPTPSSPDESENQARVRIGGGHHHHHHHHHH
The experiment in a line: HTRF epitope competition, scFv titrated, competitor C0020187 IgG, on biotinylated human trimeric ARG2. (In general: Time-resolved FRET reads energy transfer from a long-lived donor to a nearby acceptor.)

Assay [3] has as its target T2, biotinylated recombinant human trimeric …. The assay is described as follows: BLI (OctetRED), biotinylated ARG2 on streptavidin, Fab as analyte. As to the method:
An Octet Kinetics Buffer (PBS containing 0.01% BSA and 0.002% Tween20) is typically used as the diluent buffer for the analyte samples and as the flow buffer during the dissociation phase. The experimental data is recorded over time as shift in interference pattern (nm) over time, which is directly proportional to the optical thickness at the biosensor tip, which in turn is an approximate measure of the mass of analyte bound. The proprietary Octet Data Analysis software package can then be used to process data and fit binding models to the data sets. Returned association (kₐ, M⁻¹ s⁻¹) and dissociation (kd, s⁻¹) rate constants allow calculation of dissociation (KD, M) affinity constants.
Typically, an analyte titration range of 1.8 to 120 nM was used.

Where a chain is given by its changes, count along the chain named.

Results on 26 molecules are retold here after patent US20220403048A1 (CANCER RESEARCH TECHNOLOGY, published 2022).

B1: C0021017 scFv (scFv, V domains shown)
VH: EVQLLESGGGLVQPGGSLRLSCAASGFTFYPEYELWVRQAPGKGLEWVSAISGSGGSTYYADSVKGRFTISRDNSKNTLYLQMNSLRAEDTAVYYCARLRADLGLYMDLWGRGTLVTVSS
VL: QSVLTQPPSVSAAPGQKVTISCSGSSSNIGNHYVSWYQQLPGTAPKLLIYDNSERPSGIPDRFSGSKSGTSATLGITGLQTGDEADYYCGTWDSSLSALVFGGGTKLTVL
notes: scFv
As to B1, the “Trimeric human ARG2 EIA IC50” value in assay [1] was 226 nM. In addition, the IC50 (in general, the concentration needed to halve the response being measured) in assay [2] is 122 nM.

B2: C0021022 scFv (scFv, V domains shown)
VH: EVQLLESGGGLVQPGGSLRLSCAASGFTFSSYAMSWVRQAPGKGPEWVSAISGFSPYYADSVKGRFTISRDNSKNTLYLQMNSLRAEDTAVYYCARLRADLGLYMDLWGRGTLVTVSS
VL: B1 VL
notes: scFv
B2: the “Trimeric human ARG2 EIA IC50” value in assay [1] stood at 106 nM. The half-inhibitory concentration (IC50) in assay [2] came out at 65.9 nM.

B3: C0021141 Fab (Fab, V domains shown)
VH: B1 VH with E32D, Y33P, E34Q, L35G, I51Y, S52G, G53Y, S54G, G55I
VL: B1 VL with K17E, G30D
notes: Human Fab
Regarding B3, in assay [3], the Kd (usually the constant that tells how readily two partners part at equilibrium) is 3.33 nM; the koff – broadly, the rate constant with which the complex falls apart – stood at 0.00108 s⁻¹; the kon (in general, a measure of how fast the partners come together) turned out to be 326000 M⁻¹ s⁻¹.

B4: C0021089 scFv (scFv, V domains shown)
VH: B1 VH with Y30P, P31Y, E34W, L35S, E89Q
VL: B1 VL with S94P, S95T, L96V, A98R
notes: scFv
Consider B4, for which, in assay [1], the “Trimeric human ARG2 EIA IC50” value was 71.5 nM. Also, the half-maximal inhibitory concentration (IC50) in assay [2] is 133 nM.

B5: C0021021 scFv (scFv, V domains shown)
VH: B1 VH with Y30S, P31S, E32Y, Y33A, E34M, L35S, A50S, S52L, G53F, G55P
VL: B1 VL
notes: scFv
Consider B5, for which the “Trimeric human ARG2 EIA IC50” value in assay [1] came out at 151 nM. Besides, the IC50 in assay [2] amounted to 58.7 nM.

B6: C0021097 Fab (Fab, V domains shown)
VH: B1 VH with Y30S, P31S, E32Y, Y33A, E34M, L35S, G53Y, S54H, G55P
VL: B1 VL with D51N, N52T, S53F, E54A
notes: Human Fab
With B6, in assay [3], the Kd is 4.95 nM, the koff stood at 0.00146 s⁻¹ and the on-rate constant (kon) amounted to 295000 M⁻¹ s⁻¹.

B7: C0021096 Fab (Fab, V domains shown)
VH: B2 VH with P45L, F54Y, P56G
VL: B1 VL with D51N, N52T, S53E, E54R, P56M
notes: Human Fab
On to B7, for which, in assay [3], the equilibrium dissociation constant (Kd) is 3.48 nM, the off-rate (koff) is 0.00154 s⁻¹ and the kon was 441000 M⁻¹ s⁻¹.

B8: C0021097 scFv (scFv, V domains shown)
VH: B1 VH with Y30S, P31S, E32Y, Y33A, E34M, L35S, G53Y, S54H, G55P
VL: B1 VL with D51N, N52T, S53F, E54A
notes: scFv
In the case of B8, in assay [1], the “Trimeric human ARG2 EIA IC50” value was determined as 99.1 nM. The IC50 in assay [2] was 27.5 nM.

B9: C0021032 Fab (Fab, V domains shown)
VH: EVQLLESGGGLVQPGGSLRLSCAASGFTFSSYAMSWVRQAPGKGLEWVSAYGYGIGSTYYADSVKGRFTISRDNSKNTLYLQMNSLRAEDTAVYYCARLRADLGLYMDLWGRGTLVTVSS
VL: B1 VL
notes: Human Fab
For B9, in assay [3], the Kd stood at 5.33 nM, the koff was 0.00228 s⁻¹ and the kon turned out to be 427000 M⁻¹ s⁻¹.

B10: C0021124 scFv (scFv, V domains shown)
VH: B9 VH with Y51I, G52S, G54H, I55P, M83I
VL: B1 VL with P7L, S95D, L96R, S97V, A98N, V100E
notes: scFv
On to B10, for which, in assay [1], the “Trimeric human ARG2 EIA IC50” value worked out at 375 nM. The IC50 in assay [2] turned out to be 50.5 nM.

B11: C0021118 Fab (Fab, V domains shown)
VH: B9 VH with Y51S, G52L, Y53T, G54N, I55P
VL: B1 VL with G90A, W92Y, S94T, S95N
notes: Human Fab
Turning to B11, in assay [3], the Kd was determined as 8.23 nM, the off-rate (koff) worked out at 0.00114 s⁻¹ and the kon is 139000 M⁻¹ s⁻¹.

B12: C0021118 scFv (scFv, V domains shown)
VH: B9 VH with Y51S, G52L, Y53T, G54N, I55P
VL: B1 VL with G90A, W92Y, S94T, S95N
notes: scFv
Consider B12, for which the “Trimeric human ARG2 EIA IC50” value in assay [1] turned out to be 84.1 nM. Also, the IC50 in assay [2] was 41.7 nM.

B13: C0021021 Fab (Fab, V domains shown)
VH: B9 VH with A50S, Y51I, G52L, Y53F, G54S, I55P
VL: B1 VL
notes: Human Fab
Turning to B13, in assay [3], the Kd stood at 4.24 nM, the koff stood at 0.002 s⁻¹ and the kon was 473000 M⁻¹ s⁻¹.

B14: C0021092 scFv (scFv, V domains shown)
VH: B9 VH with S31R, Y51H, G52T, Y53H, G54S, I55P
VL: B1 VL with D51N, N52S, S53V, E54A
notes: scFv
In the case of B14, the “Trimeric human ARG2 EIA IC50” value in assay [1] amounted to 159 nM. Further, in assay [2], the IC50 worked out at 130 nM.

B15: C0021139 scFv (scFv, V domains shown)
VH: B1 VH with Y30Q, P31Y, E32D, E34Q, L35V
VL: B1 VL with P56T, S94E, S95L, L96T, A98N
notes: scFv
Regarding B15, in assay [1], the “Trimeric human ARG2 EIA IC50” value amounted to 188 nM. The 50% inhibitory concentration (IC50) in assay [2] was found to be 40.1 nM.

B16: C0021098 scFv (scFv, V domains shown)
VH: B9 VH with A50S, Y51S, G52T, I55A
VL: B1 VL with D51N, N52S, S53D, E54A, R55P, P56M
notes: scFv
Regarding B16, the “Trimeric human ARG2 EIA IC50” value in assay [1] amounted to 134 nM. Moreover, the IC50 in assay [2] was found to be 48.3 nM.

B17: C0021032 scFv (scFv, V domains shown)
VH: B9 VH
VL: B1 VL
notes: scFv
With B17, the “Trimeric human ARG2 EIA IC50” value in assay [1] worked out at 211 nM. Also, the IC50 in assay [2] was 67 nM.

B18: C0021096 scFv (scFv, V domains shown)
VH: B2 VH with P45L, F54Y, P56G
VL: B1 VL with D51N, N52T, S53E, E54R, P56M
notes: scFv
As for B18, in assay [1], the “Trimeric human ARG2 EIA IC50” value is 57.8 nM. In assay [2], the IC50 turned out to be 35.2 nM.

B19: C0021065 scFv (scFv, V domains shown)
VH: B2 VH with K74R
VL: B1 VL with N52T, S53D, E54H, R55M, P56A
notes: scFv
As to B19, the “Trimeric human ARG2 EIA IC50” value in assay [1] came to 143 nM. For the same molecule, the IC50 in assay [2] came out at 74.7 nM.

B20: C0021131 scFv (scFv, V domains shown)
VH: B1 VH with Y30P, P31Y, E32D, E34M, L35G
VL: B1 VL with S94E, S95L, L96T, A98N
notes: scFv
In the case of B20, the “Trimeric human ARG2 EIA IC50” value in assay [1] is 251 nM. In addition, in assay [2], the IC50 stood at 45.7 nM.

B21: C0021135 scFv (scFv, V domains shown)
VH: B1 VH with T28A, Y30R, P31Y, E34I, L35Q
VL: B1 VL with P45H
notes: scFv
Regarding B21, in assay [1], the “Trimeric human ARG2 EIA IC50” value was found to be 220 nM. In addition, in assay [2], the IC50 came to 52 nM.

B22: C0021101 Fab (Fab, V domains shown)
VH: B2 VH
VL: B1 VL with D51N, S53R, E54S, R55P, P56T
notes: Human Fab
For B22, in assay [3], the Kd was 3.41 nM, the koff worked out at 0.00107 s⁻¹ and the kon is 314000 M⁻¹ s⁻¹.

B23: C0021101 scFv (scFv, V domains shown)
VH: B2 VH
VL: B1 VL with D51N, S53R, E54S, R55P, P56T
notes: scFv
For the molecule B23, in assay [1], the “Trimeric human ARG2 EIA IC50” value came to 64.8 nM. Moreover, the IC50 in assay [2] is 40.8 nM.

B24: C0021061 scFv (scFv, V domains shown)
VH: B9 VH with Y51K, G52P, Y53T, G54D, I55A
VL: B1 VL with D51N, N52T, S53V, E54Y, R55P, P56K
notes: scFv
Regarding B24, in assay [1], the “Trimeric human ARG2 EIA IC50” value amounted to 110 nM. In assay [2], the IC50 is 101 nM.

B25: C0021129 scFv (scFv, V domains shown)
VH: B2 VH with Q13R, P45L, Y57F
VL: B1 VL with G75D, S94E, S95T, L96A, S97A, A98E
notes: scFv
Consider B25, for which, in assay [1], the “Trimeric human ARG2 EIA IC50” value was 313 nM. Moreover, the concentration for half-maximal inhibition (IC50) in assay [2] was 45 nM.

B26: C0021142 Fab (Fab, V domains shown)
VH: B9 VH with Y51H, G52T, Y53H, G54S, I55P
VL: B1 VL
notes: Human Fab
In the case of B26, in assay [3], the Kd stood at 2.77 nM, the koff is 0.0011 s⁻¹ and the kon was 399000 M⁻¹ s⁻¹.
